For the experiment, the target named is endogenous NIK of mouse embryonic fibroblast cells (mouse) (UniProt Q9WUL6). As to the kind of experiment: cell-based or functional assay.
endogenous NIK of mouse embryonic fibroblast cells (mouse), sequence (Q9WUL6 whole entry): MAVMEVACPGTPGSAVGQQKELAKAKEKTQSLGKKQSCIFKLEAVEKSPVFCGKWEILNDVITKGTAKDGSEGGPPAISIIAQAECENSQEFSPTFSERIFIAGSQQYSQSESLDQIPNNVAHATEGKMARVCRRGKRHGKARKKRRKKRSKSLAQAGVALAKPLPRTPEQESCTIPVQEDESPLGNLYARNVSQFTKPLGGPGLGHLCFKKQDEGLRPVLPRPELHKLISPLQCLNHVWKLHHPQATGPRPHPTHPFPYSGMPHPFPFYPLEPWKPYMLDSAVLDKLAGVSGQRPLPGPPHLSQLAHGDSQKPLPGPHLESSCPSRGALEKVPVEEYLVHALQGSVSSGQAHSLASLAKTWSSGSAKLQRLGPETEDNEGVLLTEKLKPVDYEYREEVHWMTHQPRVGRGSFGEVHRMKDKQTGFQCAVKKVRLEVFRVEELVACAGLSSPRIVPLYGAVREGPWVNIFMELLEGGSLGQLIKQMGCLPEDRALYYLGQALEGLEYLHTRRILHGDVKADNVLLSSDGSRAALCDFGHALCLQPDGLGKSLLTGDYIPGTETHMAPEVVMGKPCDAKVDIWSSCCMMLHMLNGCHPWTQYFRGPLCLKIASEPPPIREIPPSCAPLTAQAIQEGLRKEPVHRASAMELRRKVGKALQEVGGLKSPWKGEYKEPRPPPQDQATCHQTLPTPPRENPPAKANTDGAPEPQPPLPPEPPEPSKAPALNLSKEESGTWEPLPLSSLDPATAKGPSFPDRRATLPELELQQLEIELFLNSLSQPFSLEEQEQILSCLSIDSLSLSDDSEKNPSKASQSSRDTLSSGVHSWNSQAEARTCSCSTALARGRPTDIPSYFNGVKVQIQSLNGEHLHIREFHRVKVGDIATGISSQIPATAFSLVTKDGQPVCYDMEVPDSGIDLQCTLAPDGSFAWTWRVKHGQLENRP

The substance “GST-41MDD fusion protein (from UniProt P31785 329-369)” yielded a decrease in NF-κB activation by LTβ, luciferase reporter, mouse embryonic fibroblast cells of 50%. “GST fusion protein with the intracellular domain of cγc (from UniProt P31785 284-369)” showed an NF-κB activation by LTβ, luciferase reporter, mouse embryonic fibroblast cells of 2.5 fold.
